Legend:
Assay in all cases: ITC
[1] = molecular target: H2B (1–27) unmodified peptide (Homo sapiens); settings: domain or fragment; chains chain; fluorescently labeled with a His tag Labeling Kit (microscale thermophoresis only)
[2] = molecular target: H4 (1–20) K5ac/K8ac peptide (Homo sapiens); settings: domain or fragment
[3] = molecular target: H4 (1–20) unmodified peptide (Homo sapiens); settings: domain or fragment; chains chain; fluorescently labeled with a His tag Labeling Kit (microscale thermophoresis only)

Chain of H2B (1–27) unmodified peptide (Homo sapiens) (main, as listed by the source): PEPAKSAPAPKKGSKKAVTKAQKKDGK

B1: human p300BRP (residues 1048–1282), wild type, Q09472 1048-1282 (protein)
chain: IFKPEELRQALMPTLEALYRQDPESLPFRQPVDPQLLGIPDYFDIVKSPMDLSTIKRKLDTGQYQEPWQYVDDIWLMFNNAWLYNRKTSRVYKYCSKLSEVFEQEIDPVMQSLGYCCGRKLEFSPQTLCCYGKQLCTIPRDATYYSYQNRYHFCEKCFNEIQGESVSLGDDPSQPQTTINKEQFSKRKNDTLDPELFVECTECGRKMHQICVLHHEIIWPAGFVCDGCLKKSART
Kd [1]: > 500 µM
Kd [2]: 240 µM
Kd [3]: > 500 µM

— PMC10352329
